# In the supplement of paper PMC9170038:
# Tested on: MS2 coat protein
# Experiment: apparent KD of MS2 coat protein; higher = weaker reporter binding
# Details: Eterna round: R107
# Summary of the method: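 The buffer was 100 mM Tris-HCl pH 7.5 with 80 mM KCl and 4 mM MgCl2, used without or with constant ligand. In it, RNA switches transcribed on-chip from Illumina sequencing clusters were titrated with SNAP-549-labelled MS2 coat protein in twofold steps from 0.7 or 1.5 nM to 3 µM. Apparent KD for each design is the median of its normalised cluster binding-curve fits.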
# [1] = input ligand: theophylline 20 uM
# [2] = input ligand: theophylline 2 mM
# [3] = input ligand: tryptophan 2.4 mM
Sequence,apparent KD of MS2 coat protein (input ligand: arginine 13.2 mM) [nM],apparent KD of MS2 coat protein (input ligand: none) [nM],apparent KD of MS2 coat protein [1] [nM],apparent KD of MS2 coat protein [2] [nM],apparent KD of MS2 coat protein [3] [nM]
UGUACAUAAUUAGGUUACCUAUGUACAGAAGGAGCGUCGAUGACGACAGGUAGGUCGCUGUUAACAUGAGGAUCACCCAUGUACA [Arg A Ex t4],37.7,44.4,46.2,57.3,42.4
GUACAUGAGGAUCACCCAUGUAUAGUUGAAGGAGCGACCGGUGGGUCAGGUAGGUCGCAGCACAUGGCGUCAACCCGUGUAUGCC [#1 Exclusion - Arginine A Attempt #26 (Inspired by Pi)],18.1,17.6,26.7,22.1,17.2
AGCCCUGUGCUAGAUACCAGCUACAUGAGGAUCACCCAUGUGCGUCAAGACUGACUGUGUAGCCCUUGGCAGCUACUCGCAUGUA [Exclusion - Theophylline B (Freestyle 4)],11.9,,19,,12.5
GAUCCGUACCAGACCUUCAAUGGACUCAGUCGAGGACCGGUACGGCCGCCACUCGGAGAAGAACAUGAGGAUCACCCAUGUGAUG [theeternabot_exclusion_MS2_Trp_A_36],23.9,,47,34.9,
CGCGUCCCGGACGAUACCAGAUAUGAGCGACACAUGAGGAUCACCCAUGUCAAUCAUGAGAUCCCUUGGCAGCGUUUGCACAACU [theeternabot_sameState_MS2_Theo_B_8],81.2,,210,,183
CUCAUCCACGCGGCCGCCACUAUAUUGUGGUGUGGGUGUGACGUAUUACAUGAGGAUCACCCAUGUAGGACCGGGCGUGGAUGAG [Stork],188,408,525,1100,534
GGGUAUGAUCCGGAUACCAGCGAACAUGAGGAUCACCCAUGUGACCUAAGAUAGGCUCUACGCCCUUGGCAGCCGCGAUCGCAGA [Same State Theophylline B GF9],20.4,22.3,23.2,13.3,24.7
AUCGUACCUGAUGAUACCAGCAAUUGCUCGUAACAUGAGGAUCACCCAUGUGACCAGUGAUGCCCUUGGCAGCAUGGUCGGUGCA [Same State - Theophylline B (Freestyle 21)],59.5,,190,,150
ACGACGGCUGCGGCCGCCACUGUACAUGAGGAUCACCCAUGUGUAGUAAUUGGGACCCUGUGUUACAGGACCGGGUAGUUGAUUA [Orquteer],23.3,,49,47.1,
AGCACUGUGACGGCCGCCACUAUAUUAGGGUGGUAGGGUUCAUAAAUACAUGAGGAUCACCCAUGUAGGACCGGGUCUCAGUGCA [Omei Trp Exc B A v1],11.6,12.1,15.9,10,21.2
UCAUAUUAGAUAGAUGUAAGGUAUCAUGAUACCAGUAGAUAAUUAUACCCUUGGCAGCAUAACAUGAGGAUCACCCAUGUACAUG [Aa],20.3,,22,,17.9
UGGUGUAGGGUAAAUAGGAUUAGUACAGAAGGAGCGCGAAUAAACGCAGGUAGGUCGCUGGAAUACAUGAGGAUCACCCAUGUUC [Same State Arginine A GF 25],22.6,22,24.7,26.7,26
UAUCGUCAGACGGCCGCCACUAGAACAUGAGGAUCACCCAUGUACGGCCGCCCGGUAUGGGUGUCUAGGACCGGGUCUGACGAAU [(Trp1)-(Ms2)-(T)'-(M)'-(Trp2)_Design21],22.9,,37.8,39.8,
GCUACAUGAGGAUCACCCAUGUCAGCUACACGAGGACCGGUACGGCCGCCACUCGGUAGCGCUCAUCCUCGUGUGUAAGUCAAGU [Xedier],48.2,81.6,116,97.5,23.5
AUCGUACCUGAUGAUACCAGCAAUUGCUCGUAACAUGAGGAUCACCCAUGUGACCAGUGAUGCCCUUGGCAGCAUGAUCGGUGCA [Same State - Theophylline B (Freestyle 20)],45.7,,48.9,,45.8
AGUCUAUGAAGAGAUACCAGUGAGAGACAUAGACAUGAGGAUCACCCAUGUGACAUGAAGCACCCUUGGCAGCUCAACGAGCUCA [Theo B SS t1],31.4,,50,,39
GGGCGUGUGGUGCGGCGUGUUCCGCUCCGUCGAGGACCGGUACGGCCGCCACUCGACAUGAGGAUCACCCAUGUGCGAGCGCGCG [#1 Exclusion - Tryptophan A Attempt #8 (HarryS)],13.2,11.5,13.2,11.7,19.2
UGUAUGGACUGAAGGAGCGCCUCAAAAUAGCAUGAGGAUCACCCAUGCAAGGCGAAAGCCGGGCAGGUAGGUCGCAGUCCAUACU [ArgBX 3],13.5,,14,14.5,13

Sequence,apparent KD of MS2 coat protein (input ligand: arginine 13.2 mM) [nM],apparent KD of MS2 coat protein (input ligand: none) [nM],apparent KD of MS2 coat protein [1] [nM],apparent KD of MS2 coat protein [2] [nM],apparent KD of MS2 coat protein [3] [nM]
AAACAUGAGGAUCACCCAUGUGGAACCGAAGGAGCGGCGCACAUGCCAGGUAGGUCGCGGGACAUGAGGACAUGAGGAUCACCCA [Same State Arginine A 3],45.1,135,207,184,134
AGCUCGCAUCCUCUAGCGUCAAAGACGCCUCGAGGACCGGUACGGCCGCCACUCGAUAUGAGGAUCACCCAUAUCAAAGCGAGCA [TrypAX 2 #SwitchBubble #AlternativeMS2 #MS2Late #CuTurnoff],32.7,53.8,59.5,75.5,581
GUAAUUAUAAGAAGGAGCGUCGAAAAUGGGUAAACAUGAGGAUCACCCAUGUAAAGGGAACGACAGGUAGGUCGCUUAUGGUUAC [AstromonsSSArgB#24],99.2,200,245,305,214
UGUACCAUGUCGGCCGCCACUCAUGAUAAAUAUGAGGAUCACCCAUAUAGCGUCAAAGACGCUAUGAGGACCGGGACAUGGUACU [TryBS Zipper 2],40.8,41.3,50.5,50.4,14
GGUUUGCGGCCUGAUACCAGUGAUGGAUGAACCCUAGUCAACAUGAGGAUCACCCAUGUUCACCCUUGGCAGCAGUGACGCUCGA [theeternabot_exclusion_MS2_Theo_B_34],43.2,69.7,78.7,354,74.1
AAGCCCAGGACGGCCGCCACUGUAAAAUGGUGGUUCGCCUGUAAGAACAUGAGGAUCACCCAUGUCAGGACCGGGUCCACGAGUU [theeternabot_exclusion_MS2_Trp_B_46],17.1,,23.8,15.8,
AUAAUAAAGACGGCCGCCACUAUAAACAUGAGGAACAUGAGGAUCACCCAUGUAUGAGGAUCACCUAGGACCGGGUCAAAUAUUA [AstrosExyTryB#3],36,49.4,70.1,45.9,44.7
CAGUCAGUCAGUCAAUGAGUGAGGCAUGAAGGAGCGUGGGAAACCACAGGUAGGUCGCAUGCGAAACAUGAGGAUCACCCAUGUU [SSArg A #3],29.4,47.9,42.5,51.9,26.3
UUUCAGUGGACGGCCGCCACUGAAGUCGAUACAAUCAUGUAGAACAUGAGGAUCACCCAUGUAGUCAGGACCGGGUCCAAUGACU [Tryp B SS t3],15.9,22.9,21.3,22.8,20.5
AACAUGAGGAUCACCCAUGUUUUAUGGGAUACCAGAGACGAAAGUCUCCCUUGGCAGCCCAAGCUGCUCCAUACGAAAGUAUGGU [Theophylline A 17],16,,18.2,,16.6
GUCCGCAGCCGAAGGAGCGCUAGAAGGUGACAUGAGGAUCACCCAUGUGUGUGAUGUGGCUAGCAGGUAGGUCGCGGAGCGGAUU [Exclusion - Arginine B (Freestyle 18)],85.2,59.2,110,76.7,61.9
UAUAACAUGAGGAUCACCCAUGUAAGUGAUACCAGAUAAAUAAUAGUCCCUUGGCAGCAUAUUGGGAAAGUGUAUAAUAUAUAUU [Same State - Theophylline A (Freestyle 2)],50.8,,66.1,,48.1
UGUAUGGACUGAAGGAGCGGUUGAUAACAUGAGCAUCAGCCAUGUAAUAAGGCGAAAGCCAACCAGGUAGGUCGCAGUCCAUACU,8.26,9.68,12.5,9.11,14.8
ACGUCCAGGUUAAUCGUGGACAUGGUCGAUACCAGUAUUUUAAUCUACCCUUGGCAGCGACAUGAGGAUCACCCAUGUGCGAUGA [XTheo A #15],11.7,,14.7,,13
AAAGAUCGGAAACGAUCGGCGGCUUGGGCGCGAGGACCGGUACGGCCGCCACUCGGGAAACAUGAGGAUCACCCAUGUUGCUAGC [ETA NP+V+V2 #15],12.3,,18.4,16.8,
AAGCUUCGCAUAGGAAAACUAUGUGAAGCUCGAGGACCGGUACGGCCGCCACUCGUCCUCAACAUGAGGAUCACCCAUGUAAUAA [Mat - Exclusion - Trytophan A - D2],20.7,,28.6,25.9,
UGUAUGGACUGAAGGAGCGGAAGAUAGCUUGAGGAUCACCCAAGUAAUAAGGCGAAAGCCUUCCAGGUAGGUCGCAGUCCAUACU,31.4,35.2,43.1,38,38.6
